The text below walks through data of the supplement of paper PMC9233669.

One series has as its system biotinyl-Phe-oxazolone. In words: self-aminoacylation, catalytic enhancement (BFO) (fold over background); higher = more active; k-Seq, kA / k0A0; sequences stand for … in GGGAAUGGAUCCACAUCUACGAAUUC…UUCACUGCAGACUUGACGAAGCUG
The method, boiled down: (§1)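 Mutagenized RNA pools with a 21-nt variable region (0.43 μM) reacted with each biotinyl-aminoacyl-oxazolone at 2–1250 μM. Reactions ran in 50 μL HEPES/NaCl/KCl/MgCl2/CaCl2 buffer with 5% acetonitrile, pH 6.9–7.0, for 90 minutes at room temperature. Streptavidin-captured RNA was quantified by triplicate qPCR and Illumina sequencing, and per-sequence fraction reacted was fit to a pseudo-first-order model with 1000 bootstraps. Catalytic enhancement is median kA divided by the uncatalyzed rate, the low-activity peak of a bimodal Gaussian fit.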

A further series deals with biotinyl-Ile-oxazolone. In words: self-aminoacylation, catalytic enhancement (BIO) (fold over background); higher = more active; k-Seq, kA / k0A0; sequences stand for … in GGGAAUGGAUCCACAUCUACGAAUUC…UUCACUGCAGACUUGACGAAGCUG
In outline:
as §1

A further series deals with biotinyl-Met-oxazolone. In words: self-aminoacylation, catalytic enhancement (BMO) (fold over background); higher = more active; k-Seq, kA / k0A0; sequences stand for … in GGGAAUGGAUCCACAUCUACGAAUUC…UUCACUGCAGACUUGACGAAGCUG
The method, boiled down:
as §1

The next series concerns biotinyl-Val-oxazolone. In words: self-aminoacylation, catalytic enhancement (BVO) (fold over background); higher = more active; k-Seq, kA / k0A0; sequences stand for … in GGGAAUGGAUCCACAUCUACGAAUUC…UUCACUGCAGACUUGACGAAGCUG
The method, boiled down:
as §1

A further series relates to biotinyl-Leu-oxazolone. Put plainly: self-aminoacylation, catalytic enhancement (BLO) (fold over background); higher = more active; k-Seq, kA / k0A0; sequences stand for … in GGGAAUGGAUCCACAUCUACGAAUUC…UUCACUGCAGACUUGACGAAGCUG
In outline:
as §1

For a further series, the system named is biotinyl-Trp-oxazolone. Put plainly: self-aminoacylation, catalytic enhancement (BWO) (fold over background); higher = more active; k-Seq, kA / k0A0; sequences stand for … in GGGAAUGGAUCCACAUCUACGAAUUC…UUCACUGCAGACUUGACGAAGCUG
In outline: as §1

Fewer inactive variants are shown than the library holds.

As to “AUUGCCCUGGUCAUAGAGUGA [Fam2.1 aminoacylation ribozyme variant]”, the self-aminoacylation with biotinyl-Phe-oxazolone was 57.9; in the series on biotinyl-Ile-oxazolone it was 4.05; in the series with biotinyl-Met-oxazolone, 9.01; in the series with biotinyl-Val-oxazolone, 4.65; in the series on biotinyl-Leu-oxazolone, 8.58; in the series on biotinyl-Trp-oxazolone, 10.9.

For the sequence “AUUCCCCCAGGUCAUCGGGUG [Fam2.2 aminoacylation ribozyme variant]”, the self-aminoacylation with biotinyl-Phe-oxazolone was determined as 174; in the series with biotinyl-Ile-oxazolone it was 14; in the series with biotinyl-Met-oxazolone it was 17.1; in the series on biotinyl-Val-oxazolone it was 11.4; with biotinyl-Leu-oxazolone it was 24.7; in the series with biotinyl-Trp-oxazolone, 17.1.

As to “CCAAACUUCAAGAAAUCGGUC [Fam1B.1 aminoacylation ribozyme variant]”, the self-aminoacylation in the series on biotinyl-Phe-oxazolone is 6.01; with biotinyl-Ile-oxazolone it was 0.936; in the series with biotinyl-Met-oxazolone, 0.927; in the series with biotinyl-Val-oxazolone, 0.84; in the series with biotinyl-Leu-oxazolone, 0.986; in the series with biotinyl-Trp-oxazolone it was 5.02.

For “CCACACUUCAAGCACUCGAUC [Fam1B.1 aminoacylation ribozyme variant]”, the self-aminoacylation in the series on biotinyl-Phe-oxazolone turned out to be 0.872; in the series on biotinyl-Ile-oxazolone it was 0.604; in the series on biotinyl-Met-oxazolone, 0.43; with biotinyl-Val-oxazolone it was 0.713; in the series with biotinyl-Leu-oxazolone it was 0.546; in the series on biotinyl-Trp-oxazolone, 0.436.

In the case of “CCACACUUCAAGCAAUCUAUC [Fam1B.1 aminoacylation ribozyme variant]”, the self-aminoacylation with biotinyl-Phe-oxazolone was found to be 0.891; in the series on biotinyl-Ile-oxazolone, 0.557; with biotinyl-Met-oxazolone it was 0.422; with biotinyl-Val-oxazolone, 0.683; in the series with biotinyl-Leu-oxazolone it was 0.533; in the series with biotinyl-Trp-oxazolone, 0.287.

In the case of “AAGUUUGCUAAUCGUCGUAAG [Fam3.1 aminoacylation ribozyme variant]”, the self-aminoacylation in the series with biotinyl-Phe-oxazolone is 6.16; in the series on biotinyl-Ile-oxazolone, 0.808; in the series on biotinyl-Met-oxazolone, 0.85; in the series on biotinyl-Val-oxazolone, 0.947; in the series on biotinyl-Leu-oxazolone it was 0.75; in the series with biotinyl-Trp-oxazolone, 2.06.

In the case of “CCACACUUUAAGCAAUCAGUC [Fam1B.1 aminoacylation ribozyme variant]”, the self-aminoacylation with biotinyl-Phe-oxazolone was 1.03; with biotinyl-Ile-oxazolone, 0.76; in the series with biotinyl-Met-oxazolone, 0.541; with biotinyl-Val-oxazolone, 0.874; with biotinyl-Leu-oxazolone it was 0.69; in the series on biotinyl-Trp-oxazolone, 0.749.

Take “CUACCUCAAACAAUUGGUCUG [Fam1A.1 aminoacylation ribozyme variant]”: the self-aminoacylation was determined as 0.81 with biotinyl-Phe-oxazolone; 1.08 in the series with biotinyl-Ile-oxazolone; 1.08 in the series with biotinyl-Met-oxazolone; 1.04 in the series with biotinyl-Val-oxazolone; 0.824 in the series on biotinyl-Leu-oxazolone; 0.733 with biotinyl-Trp-oxazolone.

With “AUUACCCUGGUCAUCGCGGGA [Fam2.1 aminoacylation ribozyme variant]”, the self-aminoacylation in the series with biotinyl-Phe-oxazolone was found to be 29.3; with biotinyl-Ile-oxazolone, 5.03; with biotinyl-Met-oxazolone it was 5.35; in the series with biotinyl-Val-oxazolone it was 4.56; in the series with biotinyl-Leu-oxazolone, 7.42; in the series on biotinyl-Trp-oxazolone it was 3.4.

On to “AUUAACCUAGGUCACCGGGUG [Fam2.2 aminoacylation ribozyme variant]”, for which the self-aminoacylation worked out at 23.6 with biotinyl-Phe-oxazolone; 3.19 in the series with biotinyl-Ile-oxazolone; 4.09 with biotinyl-Met-oxazolone; 3.13 with biotinyl-Val-oxazolone; 4.52 with biotinyl-Leu-oxazolone; 5.15 in the series on biotinyl-Trp-oxazolone.

For the sequence “CUACUUCGCACAAUCGGUCUG [Fam1A.1 aminoacylation ribozyme variant]”, the self-aminoacylation in the series on biotinyl-Phe-oxazolone stood at 0.439; in the series with biotinyl-Ile-oxazolone, 0.867; with biotinyl-Met-oxazolone, 0.94; in the series on biotinyl-Val-oxazolone, 0.961; in the series on biotinyl-Leu-oxazolone, 0.999; in the series with biotinyl-Trp-oxazolone it was 0.591.

In the case of “AUUACCAUGGUCAUCGAGUGA [Fam2.1 aminoacylation ribozyme variant]”, the self-aminoacylation in the series on biotinyl-Phe-oxazolone was 12; in the series with biotinyl-Ile-oxazolone, 4.49; in the series on biotinyl-Met-oxazolone it was 8.61; in the series on biotinyl-Val-oxazolone, 4.75; in the series on biotinyl-Leu-oxazolone, 9.28; in the series with biotinyl-Trp-oxazolone, 10.7.

Take “CUACUUCAAACACUCGGACUG [Fam1A.1 aminoacylation ribozyme variant]”: the self-aminoacylation in the series on biotinyl-Phe-oxazolone turned out to be 0.435; in the series on biotinyl-Ile-oxazolone, 1.11; in the series with biotinyl-Met-oxazolone it was 1.01; with biotinyl-Val-oxazolone, 1.2; with biotinyl-Leu-oxazolone, 0.89; in the series on biotinyl-Trp-oxazolone, 1.32.

For the sequence “UUACUUCAAACAAUCGGGCUG [Fam1A.1 aminoacylation ribozyme variant]”, the self-aminoacylation in the series with biotinyl-Phe-oxazolone came to 8.04; with biotinyl-Ile-oxazolone, 1.76; in the series with biotinyl-Met-oxazolone, 1.93; in the series on biotinyl-Val-oxazolone, 1.66; with biotinyl-Leu-oxazolone it was 2.22; with biotinyl-Trp-oxazolone, 7.54.

Turning to “CCACGCUUCAACCAAUCGGUC [Fam1B.1 aminoacylation ribozyme variant]”, the self-aminoacylation stood at 65.2 with biotinyl-Phe-oxazolone; 1.16 in the series on biotinyl-Ile-oxazolone; 1.37 in the series on biotinyl-Met-oxazolone; 1.55 in the series on biotinyl-Val-oxazolone; 1.99 in the series on biotinyl-Leu-oxazolone; 40.4 in the series on biotinyl-Trp-oxazolone.

As to “AUUCACCUAGGUCAUCGCGCG [Fam2.2 aminoacylation ribozyme variant]”, the self-aminoacylation in the series with biotinyl-Phe-oxazolone worked out at 22.4; in the series on biotinyl-Ile-oxazolone it was 5.42; with biotinyl-Met-oxazolone it was 5.13; in the series on biotinyl-Val-oxazolone, 5.13; with biotinyl-Leu-oxazolone, 7.72; in the series on biotinyl-Trp-oxazolone, 3.32.

In the case of “CUACUUGGAACAAUCGGUCUG [Fam1A.1 aminoacylation ribozyme variant]”, the self-aminoacylation with biotinyl-Phe-oxazolone turned out to be 0.848; in the series on biotinyl-Ile-oxazolone it was 0.831; in the series on biotinyl-Met-oxazolone, 0.904; in the series on biotinyl-Val-oxazolone it was 0.833; in the series with biotinyl-Leu-oxazolone, 0.788; in the series on biotinyl-Trp-oxazolone it was 0.642.

On to “CCACACUCCAAGCACUCGGUC [Fam1B.1 aminoacylation ribozyme variant]”, for which the self-aminoacylation was determined as 0.642 in the series on biotinyl-Phe-oxazolone; 1.35 in the series on biotinyl-Ile-oxazolone; 1.32 with biotinyl-Met-oxazolone; 1.24 with biotinyl-Val-oxazolone; 0.768 in the series with biotinyl-Leu-oxazolone; 0.831 in the series on biotinyl-Trp-oxazolone.

With “AUUACCCUGGUCAUCGACUGU [Fam2.1 aminoacylation ribozyme variant]”, the self-aminoacylation in the series with biotinyl-Phe-oxazolone is 0.377; with biotinyl-Ile-oxazolone, 0.846; in the series with biotinyl-Met-oxazolone, 0.726; in the series on biotinyl-Val-oxazolone, 0.804; in the series with biotinyl-Leu-oxazolone, 0.82; in the series with biotinyl-Trp-oxazolone, 0.723.

For the sequence “AAGUUGGCUAAUAGUGGCAAG [Fam3.1 aminoacylation ribozyme variant]”, the self-aminoacylation stood at 0.667 in the series with biotinyl-Phe-oxazolone; 0.654 in the series with biotinyl-Ile-oxazolone; 0.931 in the series with biotinyl-Met-oxazolone; 0.731 in the series with biotinyl-Val-oxazolone; 0.655 in the series on biotinyl-Leu-oxazolone; 1.13 with biotinyl-Trp-oxazolone.

Consider “CCCCACUUCAAGCAAUCGGUU [Fam1B.1 aminoacylation ribozyme variant]”, for which the self-aminoacylation in the series with biotinyl-Phe-oxazolone is 12.7; with biotinyl-Ile-oxazolone, 2.66; in the series with biotinyl-Met-oxazolone, 3.35; with biotinyl-Val-oxazolone it was 3.68; in the series with biotinyl-Leu-oxazolone it was 4.7; in the series on biotinyl-Trp-oxazolone, 16.9.

As for “GUGCACCUAGGUCAUCGGGUG [Fam2.2 aminoacylation ribozyme variant]”, the self-aminoacylation with biotinyl-Phe-oxazolone is 26.8; in the series with biotinyl-Ile-oxazolone it was 3.96; in the series with biotinyl-Met-oxazolone it was 3.85; in the series on biotinyl-Val-oxazolone, 4.64; in the series on biotinyl-Leu-oxazolone, 3.9; in the series on biotinyl-Trp-oxazolone, 6.04.

Consider “AAAUUGGCUAAUAGUCGCAAG [Fam3.1 aminoacylation ribozyme variant]”, for which the self-aminoacylation with biotinyl-Phe-oxazolone amounted to 2.72; in the series with biotinyl-Ile-oxazolone, 2.32; with biotinyl-Met-oxazolone it was 1.84; in the series with biotinyl-Val-oxazolone it was 2.05; with biotinyl-Leu-oxazolone, 2.05; in the series on biotinyl-Trp-oxazolone it was 3.11.

As to “CCACACCUCAAGCAAUCAGUC [Fam1B.1 aminoacylation ribozyme variant]”, the self-aminoacylation in the series with biotinyl-Phe-oxazolone was 1.26; in the series with biotinyl-Ile-oxazolone, 0.843; in the series on biotinyl-Met-oxazolone it was 0.804; with biotinyl-Val-oxazolone, 0.856; in the series with biotinyl-Leu-oxazolone, 0.6; in the series on biotinyl-Trp-oxazolone, 0.558.

Turning to “AAGUUUGCUAAUAGUCUCGAG [Fam3.1 aminoacylation ribozyme variant]”, the self-aminoacylation with biotinyl-Phe-oxazolone was determined as 2.01; in the series with biotinyl-Ile-oxazolone, 1.06; in the series with biotinyl-Met-oxazolone it was 1.02; in the series on biotinyl-Val-oxazolone, 0.95; in the series on biotinyl-Leu-oxazolone it was 1.14; with biotinyl-Trp-oxazolone it was 1.96.
